Test results reported in patent US10774132B2, “Ultralong complementarity determining regions and uses thereof” (THE SCRIPPS RESEARCH INSTITUTE, priority 2012, dated 2020).

What was measured:
[1] = tested on: Parental U2OS; assay: Flow cytometry binding to parental U2OS cells; settings: cell culture supernatant
Experimental: Briefly, a cell line expressing functionally validated CXCR1 derived from U2OS cells was obtained from DiscoveRx and cultured per manufacturer's instructions (Cat #93-0226C3, DiscoveRx Corporation, Freemont, Calif.). The parental cell line U2OS was obtained from ATCC and cultured under the same conditions as the CXCR1 cells. Cell culture supernatants from Example 2 above were then tested for binding to cells by flow cytometry. The adherent U2OS or CXCR1-U2OS cells were dissociated with Accutase (Innovative Cell Technologies, Inc., San Diego, Calif.), neutralized with an equal volume of media containing 10% serum, centrifuged at 1000 g, and resuspended in PBS with 2% BSA. Next, cells were dispensed into microtiter plates to achieve between 30,000 to 300,000 cells per well, centrifuged again, and resuspended in cell culture supernatant containing expressed IgG, or a dilution of IgG-containing cell culture supernatant. A fluorescent-conjugated anti-Human Fc antibody was used to detect binding of the expressed BLV1H12-IL8 fusion proteins to cells.

[2] = molecular target: T1, GLP-1 receptor (GLP-1R) (Homo sapiens, UniProt P43220); assay: GLP-1R activation, cAMP responsive luciferase reporter in HEK293 cells; assay type: cell-based; settings: HEK293 cells expressing GLP-1R, 24 h
T1 construct: expressed in transfected cells; host or cells: HEK293 (with cAMP responsive luciferase reporter gene)
Experimental: HEK293 cells expressing surface GLP-1R and cAMP responsive luciferase reporter gene were seeded in 384 well plates at a density of 5000 cells per well. […] Subsequently, luciferase assay was performed using One-Glo luciferase reagent according manufacture's instruction (Promega).
HEK293 cells expressing surface GLP-1R and cAMP responsive luciferase reporter gene were seeded in 384 well plates at a density of 5000 cells per well. After 24 h incubation at 37° C. with 5% CO2, cells were treated with various concentrations of peptides and BLV1H12-GLP-1 clip fusion proteins and incubated for another 24 h. Subsequently, luciferase assay was performed using One-Glo luciferase reagent according manufacture's instruction (Promega).

T1 sequence (P43220 24-463, species assumed): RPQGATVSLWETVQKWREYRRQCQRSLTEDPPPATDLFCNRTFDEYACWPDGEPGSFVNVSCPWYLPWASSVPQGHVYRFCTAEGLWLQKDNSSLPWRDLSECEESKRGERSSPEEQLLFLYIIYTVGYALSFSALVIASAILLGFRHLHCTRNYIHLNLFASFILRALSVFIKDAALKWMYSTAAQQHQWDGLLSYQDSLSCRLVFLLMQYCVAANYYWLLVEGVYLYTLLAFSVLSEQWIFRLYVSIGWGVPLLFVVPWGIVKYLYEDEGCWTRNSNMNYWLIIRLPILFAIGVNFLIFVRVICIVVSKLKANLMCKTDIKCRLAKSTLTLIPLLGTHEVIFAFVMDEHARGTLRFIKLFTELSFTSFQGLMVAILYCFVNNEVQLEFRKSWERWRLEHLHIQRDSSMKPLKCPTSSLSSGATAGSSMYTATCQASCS

B1: Ab: bovine BLV1H12 antibody with ultralong CDR3, no insertion; scaffold of the fusions and control (antibody)
heavy: QVQLRESGPSLVKPSQTLSLTCTASGFSLSDKAVGWVRQAPGKALEWLGSIDTGGNTGYNPGLKSRLSITKDNSKSQVSLSVSSVTTEDSATYYCTSVHQETKKYQSCPDGYRERSDCSNRPACGTSDCCRVSVFGNCLTTLPVSYSYTYNYEWHVDVWGQGLLVTVSS
light: QAVLNQPSSVSGSLGQRVSITCSGSSSNVGNGYVSWYQLIPGSAPRTLIYGDTSRASGVPDRFSGSRSGNTATLTISSLQAEDEADYFCASAEDSSSNAVFGSGTTLTVLGQPKSPPSVTLFPPSTEELNGNKATLVCLISDFYPGSVTVVWKADGSTITRNVETTRASKQSNSKYAASSYLSLTSSDWKSKGSYSCEVTHEGSTVTKTVKPSECS
[1]
  Median Arbitrary Fluorescence Units (IgG binding): 4 AFU
[2]; 1.26953 nM
  RLU (cAMP responsive luciferase reporter): 5200 RLU
[2]; 2.53906 nM
  RLU (cAMP responsive luciferase reporter): 5000 RLU
[2]; 5.07813 nM
  RLU (cAMP responsive luciferase reporter): 5600 RLU
[2]; 10.15625 nM
  RLU (cAMP responsive luciferase reporter): 5500 RLU
[2]; 20.3125 nM
  RLU (cAMP responsive luciferase reporter): 5380 RLU
[2]; 40.625 nM
  RLU (cAMP responsive luciferase reporter): 4600 RLU
[2]; 81.25 nM
  RLU (cAMP responsive luciferase reporter): 6140 RLU
[2]; 162.5 nM
  RLU (cAMP responsive luciferase reporter): 5760 RLU
[2]; 325 nM
  RLU (cAMP responsive luciferase reporter): 5600 RLU
[2]; 650 nM
  RLU (cAMP responsive luciferase reporter): 5800 RLU
[2]; 1300 nM
  RLU (cAMP responsive luciferase reporter): 14000 RLU
